Test: yeast display, Sf9 membrane polyspecificity reagent, FACS + sequencing; frameworks hold sequencing errors
Summary of the method: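 Galactose induction of a Saccharomyces cerevisiae BJ5465 synthetic nanobody display library ran 36–48 hours. The cells were then stained for 1 hour at 4 °C with 10% biotinylated, detergent-solubilized Sf9 membrane reagent, pulled down on streptavidin microbeads and FACS-sorted into low and high (top ~1%) gates on expression and reagent-binding fluorescence. Labels for polyreactivity follow the gate of origin.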

Sequence	polyreactivity (PSR sort gate)
QVQLVQSGGGLVQAVGSLRLICADSGSIFVPNAMGWYRQALGKERELVAAITYSGVDTYYADSVKGRFTISRDNAKNSVYLQMNSLKPEDTAVYYCAADNGRVGYDYWGLGTQVTVSS	low polyreactivity
QVQLVESGGGLVQAGGSLRLSCAASGSIFATYAMGWYRQAPGKERELGAAISRSGGSTYYADSVKGRFTISRDNAKNTVYLQMNSLKPEDTAVYYCAAVRGYGWWWSRWGSREYWGQGTQVTVSS	high polyreactivity
QVQLVESGGGLVQAGGSLRIICAASGSIFTYNSMGWYREAPGKERELVAAISASGGRTYYADSVKGRFTISRDNAKNTVYLQMNSLKPEDTAVYYCNVLHRSDSGYYYRYDYWGQGTQVTVSS	high polyreactivity
QVQLVESGGGLVQAGGSLRLSCAASGRTFYANAMGWYRQAPGKERELVAAISTGGDGTYYADSVKGRFTISRDNAKKTVYLQMNSLKPEDTAVYYCAVRHRASGILYDYWGQGTQVTVSS	low polyreactivity
QVQLVESGGGLVQAGGSLRLSCDASGRISGSYVMGWYRQAPRKERELVAGISGRGGSTYYADSVKGRFTISRDNAKNTVDLQMNSLKPEDTAVYYCAVVDRTSKGNSYYWGQGTQVTVSS	high polyreactivity
QVQLVESGGGLVQAGGSLRLSCAASGSTFGRYAMGWYRQAPGKERELVAAITSDTGHTNYADSVKGRFTISRDNAKNTVYLQMNSLKPEDTAVYYCAAANFWVLWGHVIGNYDSWGQGTQVTVSS	low polyreactivity
QVQLVESGGGLVQAGGSLRLSCAASGRTSRVNAMGWYRQAPGKERELVATITKSGGSTFYADSVKGRFTISRDNAKNTVYLQMNILKPEDTAVYYCNAGGVRATKGYDYWGQGTQVTVSS	low polyreactivity
KVQLVESGGGLVQAGGSLRLTCAASGSTFYIYAMGWYRPAPGKERELVATISSTGSTHYADSVKGRFTISRDNAKNTVFLQMNSLKPEDTAGYYCNPVYFGRYSRRDHWGQGTQVTVSS	high polyreactivity
QVQLVESGGGLVQAGGSLRLICAASGSIIHKNAMGWYRQAPGKERELVARITSSSGSTYYADSVKGRFTISRDNAKNTVYLQMNSLKPEDTAVYYFNAVYYHDVDFDYWGQGTQVTVSS	high polyreactivity
QVQLVESGGGLVQAGGSLRLSCAASGIIFSFYAMGWYRQAPGKERELVADITLSGGRTYYADSVKGRFTISRDNAKNTVYLQMNSLKPEDTAVYYCNADTYERGDYWGQGTQVTVSS	high polyreactivity
QVQLVESGGGLVQAGGSLRLSCAASGRTFGVYAMGWYRQAPGKERELVATIRRGGSTYYADSVKGRFTISRDNAKNTVYLQMNSLKPEDTAVYYCNASHVTWNRKYDYWGQGTQVTVSS	low polyreactivity
QVQLVESGGGLVQAGGSLRLSCAASVGTFRRYAKGWYREAPGKERELVAAISWTGGSTYYADSVKGRFTISRDNAKNNVYLQMNSLKPEDTAVYYCAAVGSSSSKGGYWGQGTQVTVSS	high polyreactivity
QVQLVESGGGLVQAGGSLRLSCAASGFTFYYYPMGWYRQAPGKERELVAAISSSGGRTYYADSVKGRFTISRDNSKNTVYLQMNSLKPEDTAVYYCAADRYFRSYDYWGQGTQVTVSS	high polyreactivity
QLQRVESGGGLVQAGGSLRLSCAASGITYRYYVMGWYRQAPGKETQLVAAITSGVSTYYADSVKGRFTISRDNAKNTVYLELNSLKPEDTAVDYCAADEPWTYYLYGKMYYWGQGTQVTVSS	high polyreactivity
QVQLVESGGGLVQAGGSLRLSCAASGSTFYYNAMGWYRQAPGKEREFVAAISSRGGSTYYADSVKGRFTISRDNAKNTVYLQMNSLKPEDTAVYYCAAKYRHRYDWGQGTQVTVSS	high polyreactivity
HVQLQESGGGLVQAGGSLRLSCAASGSIFQATYMGWYRPAPGKEREFVASITYGSITNYADSVKGRFTIGRDNAKDTLYLQMNSLKPEDTAVYYCAAVGRRRTTVGRYVRMDYWGQGTQVTVSS	low polyreactivity
QVQLVESGGGLVQAGGSLRLSSAASGRTFAVYAMGWYRQAPGKERELVAAISSGGSTYYADSVKGRFTISRDNAKNTVYLPMNSLKPEDTAVYYCTARWGYRRGDWGQGTQVTVSS	high polyreactivity
QVQLQESGSGLVQAGGSLRLSCAASGNISHYNDMGWYRQAPGKEREPVATINSGSITYYADSVKGRFTISRDNAKYTVYLQMNSLKPEDTAVYYCAVKQHGYFYLDYWGQGTQVTVSS	high polyreactivity
QVQLVESGGGLVQAGGSLRLSCAASGLIFYPYAMGWSRQAPGKEREFVAAITWSGGSTRYADSVKGRFTISRDNAKNTVYLQMNSLNPEDTAVYYCAAAYKWTYYWGQGTQVTVSS	high polyreactivity
QVQLVESGGGLVQAGGSLRLSCAASGNIFSSNAMGWYRHAPGKEREVVAAITRSGGSTYYADSVKGRFTISRDNAKNTVYLQMNSLKPEDTAVYYCAAGKPRSKYWYDYWGQGTQVTVSS	high polyreactivity
QVQLVESGGGLVQAGGSLRLSCAASGSTFADYAMGWYRQAPGKERELVAAITGDGGNTYYADSVKGRFTISRDTAKNTVYLQMTSLKPEDTAVYYCAAEHESGAYYYWGLGTQVTVSS	high polyreactivity
QVQLVESGGGLVQAGGSLRLSCAASGSIFFRYTMGWYRQAPGKERELVAAITGDGGSTYADSVKGRFTISRDNAKNTVYLQMNSLNPEDTAVYYCAALSTTGIWGTVSTYYYWGQGTQVTVSS	low polyreactivity

Sequence	polyreactivity (PSR sort gate)
QVQLVESGGGLVQAGGSLRLSCAASGITFEIYVMGWYRQAPGKERELVAAITSDDTTYADSVKGRFTISRDNAKNTVYLQMNSLKPEDTAVYYCAADYYGVGVGPYSPADEYDYWGQGTQVTVSS	low polyreactivity
QVQLVESGGGLVQAGGSLRLSCAASGGTFYYYAMGWYRQAPGKERELVAAINVSGGNTYYADSVKGRFTISRDNAKNTVYLQMNSLKPEDTAVYYCAADPGARYYYWGQGTQVTVSS	low polyreactivity
QVQLVESGGGLVQAGASLRLSCAASGRTFWFYAMGWYRQAPGQERELVAAISSGGSTNYADSVKGLFTISRDNAKNTVYLQMNSLKPEDTAVYYCAKVGNIPYGTRYYYNRYDYWGQGTQVTVSS	low polyreactivity
QVQLEESGGGLVQAGGSLRLSCAASGSTFGYYAMGWYRQAPGKERELVAAISRSGGITYYADSVKGRFTISRDNAKNTVYLQMNSLKPDDTAVYYCAADRNRYTGEDDSWGQGTQVTVSS	low polyreactivity
QVQLVESGGGLVQAGGSLRLSCAASGRIFYNNAMGWYRQAPGKERELVAGISRSSGRTYYADSVKGRFTISRDIAKNTVYLQMNSLKPEDTAVYYCNTVSWPLSSKYYYWGQGTQVTVSS	high polyreactivity
QVQLVESGGGLVQAGGSLRLSCAASGYTLVGYAMGWYRQAPGKEMELVAVISGSGGSTRYADSVKGRFTISRDNAKYTVYLQMNSLNPEDTAVYYCAARQPRTQAVYEGYYWGQGTQVTVSS	high polyreactivity
QVQLVESGGGLVQAGGSLRLSCAASGRTFVGYAMGWYRQAPGKERELLAAISKSGGRTYYADSVKGRFTISRDNAKNTVFLQMNSLKPDDTAVYYCNAVVVYYVDAGRYDYWGQGTQVTVSS	high polyreactivity
QVQLVESGGGLVQAGGSLRLSCAASGRIFYFNGMGWYRQAPGKERELVASISASGDRTYYADSVKGRFTISRDNAKNTVYLQMNSLKPEDTAVYYCATDANTYTKYDYWGQGTQVTVSS	low polyreactivity
QVQLVESGGGLVQAGGSLRLSCAASGRIVGWYAMGWYRQAPGKERELVAGINYGGGRTYYADSVKGRFTISRDNAKNTVYLQMNSLKPEDTAVYYCAAGISGHYYWGQGTQVTVSS	high polyreactivity
QVQLVESGGGLVQAGGSLRLSCAASGSIFGYNAMGWYRQAPGKERELVAAITSIGGNTYADSVKGRFTISRDNAKNTVYLQMNSLKPEDTAVYYCAAERNTDPIQVVYEFDYWGQGTQVTVSS	low polyreactivity
QVQLVESGGGLVQAGGSLRLSCAASGFIFRQYAMGWYRQAPGKEMELVAAISSSGGRTYYADSVKGRFTISRDNAKNTVYLQMNSLKPEDTAVSYCNARAWLRVEYGEGYWGQGTQVTVSS	high polyreactivity
QVQLVESGGGLVQAGGSLRLSCAASGGTFTGYAMGWYRQEPGKERELVAGISRSGGSTYYADSVKGRFTISRDNAKNTVYLQMNSLKPEDTAVYYCAKDVLKYRYWYYPGYDYWGQGTQVTVSS	high polyreactivity
QVQLVESWGGLVQAGGSLRLSCAASGSTFAQNTMGWYRQAPGKERELVATISDGGGSTYYADSVKGRFTISRDNAKNTVYLQMNSLKPEDTAVYYCNTDRFWPSYYWGQGTQVTVSS	low polyreactivity
QVQLVESGGGLVQAGGSLRLSCAASGGTFTDYAMGWYRQAPGKERELVAAISSVGSTNYADSVKGRFTITRDNAQNTVYLQMNSLNPEDTAVYYCAADVYRYWISEYDDYWGQGTQVNVSS	low polyreactivity
QVQLVESGGGLVQAGGSLRLSCAASGITFSTYAMGWYRQAPGKERELVAAITKSGGSTYYADSVKGRFTISRDNAKNTVYLQMNSLKPEDTAVYYCAAKGWIWNPYNYWGQGTQVTVSS	low polyreactivity
QVQLVESGGGLVQAGGSLRLSCAASGSTSARYAMGWYRQAPGKERELVATITRSGTTKYADSVKGRFTISRDNAKNTVYLQMNSLKPEDTAVYYCNTDTYFPLYDYWGQGTQVTVSS	low polyreactivity
QVQLVESGGGLVQAGGSLRLSCAASGRTFAVNVMGWYIPAPGKERELVAAIDFDDGITYYADSVKGRFTISRDNAKNTVYLQMNSLKPEDTAVYYCAAEFVYFGSDYYYWGQGTQVTVSS	high polyreactivity
QVQLVESGGGLVQAGGSLRLSCAASGLTFYVYAMGWYRQAPGKEREFVAAISWSGTSTSYADSVKGRFTISRDNAKNTVYLQMNSLKPEDTAVYYCAADSFASVYFGTGYDYWGQGTQVTVSS	low polyreactivity
QVQLVESGGGLVQAGGSLRLSCAASGFTFTGNAMGWYRQAPGKERELVAAITSGGRTYYADSVKGRFTISRDNAKNTVYLQMNSLIPEDTAVYYCNTAGLKRYVTFYYWGQGTQVTVSS	high polyreactivity
QVQLVESGGGLVQAGGSLRLSCAASGSIFYPNAMGWYRQAPGKESELVAAISSSGGTNYADSVKGRFTISRDNAKNTVYLQMNSLKPEDTAVYYCAADIRSNRLYDGGYWGQGTQVTVSS	low polyreactivity
QVQLVESGGGLVQAGGSLRLTCAASGSIIWAYAKGWYRQAPGKERELVAAISSGGSTYYADSVKGRFTISRDNAKNIVYLQMNCLKPEDTPVFYCAASWSRRYYYWGQGTQVTVSS	high polyreactivity
